Biological target: full-length human HSP90β (residues 1–724), pET15b construct (human) (UniProt P08238)
Experiment: cross-linking + other: mass photometry; DSS (0.5 mM) or glutaraldehyde (0.03%) added to HSP90β (15 μM), AIPL1 (25 μM) or their mixture (HSP90_(AMPPNP)/AIPL1), 15 to 30 min at 25 °C, 25 mM Hepes pH 7.5, 200 mM NaCl, 5% glycerol, 1 mM TCEP; products on 3 to 8% Tris-acetate gel and by mass photometry

Chain of full-length human HSP90β (residues 1–724), pET15b construct, P08238 1-724 (natural protein; other documents disagree on this pair) (P08238 whole entry, the tested form may be a part): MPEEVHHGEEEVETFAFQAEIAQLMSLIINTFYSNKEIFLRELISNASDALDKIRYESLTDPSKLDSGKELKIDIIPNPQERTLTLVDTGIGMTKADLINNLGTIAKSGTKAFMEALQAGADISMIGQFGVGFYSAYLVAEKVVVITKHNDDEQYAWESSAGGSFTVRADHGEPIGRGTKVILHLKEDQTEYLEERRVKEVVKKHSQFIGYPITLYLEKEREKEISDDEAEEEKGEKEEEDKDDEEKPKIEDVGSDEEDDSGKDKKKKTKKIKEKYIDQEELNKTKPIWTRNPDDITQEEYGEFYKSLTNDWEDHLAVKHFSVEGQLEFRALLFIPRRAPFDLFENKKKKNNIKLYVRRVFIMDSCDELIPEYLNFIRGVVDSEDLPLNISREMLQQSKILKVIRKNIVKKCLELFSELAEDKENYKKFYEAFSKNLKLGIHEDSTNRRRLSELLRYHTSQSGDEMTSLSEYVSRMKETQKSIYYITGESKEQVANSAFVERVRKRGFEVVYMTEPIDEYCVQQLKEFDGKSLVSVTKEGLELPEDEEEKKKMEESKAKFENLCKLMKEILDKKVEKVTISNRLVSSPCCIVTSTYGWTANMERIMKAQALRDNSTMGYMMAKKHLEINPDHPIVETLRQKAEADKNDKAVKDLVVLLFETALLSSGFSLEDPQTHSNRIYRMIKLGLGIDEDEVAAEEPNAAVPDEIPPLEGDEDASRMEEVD

stoichiometry N: 2
Substance: full-length human HSP90β (residues 1–724), pET15b construct, P08238 1-724 (natural protein; other documents disagree on this pair)

Source: PMC8857470, “Molecular insights into the maturation of phosphodiesterase 6 by the specialized chaperone complex of HSP90 with AIPL1” (The Journal of Biological Chemistry, 2022)
